According to the supplement of paper PMC11502859:

Test system: HEK293T
Test: median enrichment of reporter reads in eGFP-reduced (low/intermediate) vs eGFP-high sorted cells (eGFP-extension fusion abundance) (ratio); higher = stronger loss of eGFP-fusion protein abundance (more destabilising extension)
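Further: lentiviral eGFP-IRES-mCherry reporter pool sorted by FACS 96 h post-transduction, gated on mCherry-high cells, Illumina read counts normalized per million, median across four biological replicates.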

In order of falling median enrichment:
1. RSQLCSGQACSLRTLTTLDLELGTCGHSSSPGCIP [CIITA]  42.6
2. SDDILSPCVAFYLRFPRPAMFSSSPFSLYKNSFSRKTLISIVYMSLWLRH [ACTR3C]  17.1
3. SAPPAACPACPACLSRHTGFRTC [DIS3L2]  16.6
4. RWCWGLGRGGELGCQNSMDMFLWMEGRAFVTFCTYSFCGCFDKGMARELVSIISFILFWL [BCO1]  16
5. RTPNTIFAIQPQAMGTAFLPRGPGRPQRLLQARTLVHYTPCLGAEILQQKDAIFFVSFFSIFFSKESIFQYVECVSNAMKLKY [NFYC]  15.8
6. RRTACSDQRAQRPEDKSGGDSMGMGVGCLRERTHGLGRGERCMGITFARAAYLKVTVSSGTAGDRYLLLQEINYPENSTQPVT [LEXM]  13.9
7. RSHFCQMLPSTINALGGRRGRQ [ETHE1]  12.6
8. RSAAIRWKPLEPEAAA [FXYD6]  12
9. SCVKSFSVFSTFIKTQDNSYWREILQM [ZNF708]  11.8
10. RRVQRTCSSLGEEAPLKNSPPGTQLQPSGQAAGRRQRQREETLALTPSRVVIFGFAHHPGLPDGTLL [C12orf49]  11.7
11. RSHL [BBOX1]  11.7
12. SAPPGTPSTPSIFSTKALVVSTLLPNGHTPKWPVGRESWSTCSGMVWWKRG [CLIC1]  11
13. SCIAGLSSAASTECQAPHSAHPWALLRGPKTQEEERSACPLPPPLQYSLCAVV [SYCN]  10.8
14. SDQAVLEDRQIYTPHTHTTYTTHTRSHPLTHTLHRLLPYSWTFI [BMP4]  9.46
15. RTQTPQSSRLALLRLRGPQKSPPK [TSGA13]  9.36
16. RSGTGRLLIEIHLLGGTGFP [MRNIP]  8.41
17. SDLVQHGNDSYRLIQQLTLRQVVLFQRPLFLPKPCYELNQMCQVFSGVLSNILFSCMGTSPLQMTMLMDLFIYLFKSLFS [IFNA8]  8.28
18. RSWPPLIYSTSLAPHLH [TNFRSF6B]  8.26
19. SAPDSASALLTFYPVSLPSPLKAGAPRELPWSSLPGRV [PKMYT1]  8.2
20. RYGWYSLHI [WASHC4]  8.03
21. RSSPTKGPPETPGTISVSSHQTLALFLLLFGDLHCQNYQFQVNFVGEFPPPPSSGSPRSNVPPATFPLWPPAELICLSHRSWC [S100A7A]  7.95
22. RVFLGIVFCSCFSVLGMGPGPDTPSPPLWPWPLKLQTQVPILFSPSNAPPNLQPPCLQLPGPGRALVPSLGLIFSLNSTDQLP [JUP]  7.92
23. RVAYFMQS [PDE5A]  7.9
24. RTILELTRFVCL [KRTAP20-1]  7.89
25. SACPQHLLPPSLGVWIPMELGSAGHNLFLASDLPAIIKWLQIGT [LRRC59]  7.87
26. SAASWPWGRGLGCGAVWVLSSSPLPRPSLSNPAWDLGFNAEAMSLSGPASGYSHPGTEKAADGDCLPQPQQHLGLQLLESYHP [LGALS9]  7.86
27. RTFATVYFKNKFKLFYHFI [ABCB4]  7.31
28. SAGPWDTAFSFARLSACRPGGEPGPANESLVYLGCNSLKVQSFGLQSCPGPGSPGHCCSPRPWALVFLQHHTCCPFSISVCVK [MYO1F]  7.3
29. RVSSPTRSLARPLALQLLFGGGIPHSFLGTHSHAHCRSINSNPHFRPKIMRPHLVSTFPRPCSKPNPFLPSGSQNLLSPTATT [RNF39]  6.99
30. SDFYLNRETYARTVWTNSRPRHGARRPAGLPPLDGRGKDGRELHCESAARAAGGWDWSSLYCR [DOT1L]  6.88
31. RWTSLFPGPRTLQEMETVQRAVWSHNLNRFSGAPSLLPSLQ [RPRD1A]  6.53
32. RTCGRPF [CMTM1]  6.49
33. RVTFQVVPWAPGSGLWPTFSTFRPICTGCWQGGGRELTGTEGLGTQPFSTCAYRLDLSLLQKPALLCWLAGPVAAG [EIF6]  6.39
34. RSGLRRRRHRGE [Degron APPBP2]  6.28
35. RSLRAGPSAAGSCLNTSLDMARTHRDTGQDQPCLWRQDTTIWPMAVTSCRVQSQTGNHHLRQDLPASFTFLISRALPPILCLG [SLC22A13]  6.14
36. SDARQFLDLGGLKRPPSCLLSFSVSSFLLVFFILFSFHQPSCILALQRDRDRSSAQGFSLPLFIMGGGYHPPSQSCEESGTSF [NOTCH3]  5.68
37. SAMVSRAPHTRVYTRTMWYVARPGPGVRLGQPQLSLPLLLIQGVTRHLSLCYFWPQQEPVLGYFCPCSSQPNSGLAHPSPPPK [KCNJ11]  5.63
38. SCVGHPTRHPSSLRRPVGRQGSRGFALLLSSRVMTLLSISSHYSPCLALRAALLSSQAAPVPSPSTLEWSSSACFPSHRPATT [RAB15]  5.5
39. SCSNGKMALFKPGPPIGQTQQQTRGQGSPVALSIEDRFLGSRRGWRKLKAGE [BTN3A2]  5.24
40. SARSAVSSQWILVNWWRLADTLEKPKPESLLFSLFSCLCSVSLNTTFSAMVCG [MRFAP1]  5.22
41. SDPTSPSAFHWLCHGLYKQIIFPLFKIKSPNENLGM [PRSS37]  5.12
42. SCNPTRAHFIIAETSVCIPVITHCNRATN [IDO1]  4.95
43. SAGRGSAPRKCLLCPGAERRCLLGAGLPPCGSCAPWPGPCPAAPVSPSLSPVLVLACSSSQPRESFPTCPRLLSLPRPVVPSW [ARHGAP39]  4.7
44. RVYTRTMWYVARPGPGVRLGQPQLSLPLLLIQGVTRHLSLCYFWPQQEPVLGYFCPCSSQPNSGLAHPSPPPKAAEAVGGTGP [KCNJ11]  4.66
45. SAHAARRQGGLRRGPHSTRVCFCAAVQTVATALTERDSRAFILKEMFFPRGLLKE [GATA6]  4.62
46. RTDCRSWEPRHAQASAEGAAGGSARLDPWHLIKKFSLMSMVVGQPSSLSQQAHAASVTSSPAVYTGHCGPEWLGPCRSYTTGC [ZFPM1]  4.58
47. RYPGASPVTVTAAPPPRLLSASNHLDSPEESPMETALIRCPAAARGPRSPRVPLKECLGHIRPARSRERAPNARPG [CUX1]  4.54
48. RVFGNRISCVAHRPVEKLEPKLSYLEMTFGLDSW [C12orf76]  4.28
49. SAPCSTPSPPHPPWAGS [MOSPD3]  4.09
50. SAHQRAPSPRIAAPTQPGAPDPPGGLRGNRRREGKGPPSPSRPQGAATDWRAAEGGRARAPRGRTIRAPAPRPVPPQARA [TLX3]  3.75
51. SAGAFVAISL [MSI2]  3.7
52. RYCSTQPNL [BRPF1]  3.69
53. RVWGPCQPAAPKPAPLPKQPRPLPLNPGPGRPGRPPVTAAAPALCRAALTCLPSQPLTSRLSLGQREPFGGAACLLWFWEG [FLNA]  3.47
54. SAPYWPAGPPPPAAGQLPNGPFQGLTLHPFSVDFLARAPSGGITDLMTTLALLPCRVQVLSPHFHLPAPRGPFPFMGLPPSDA [PCDH1]  3.42
55. RVAVWEPLCLAPGYPGPGNLRAGERWGGRHAEVLLVTGLPSLTCTYLHPELSSSPSSCLLLPTCLPSAGAPRPTHSYCTVHFI [SLC36A1]  3.4
56. RSPPHLRPKGRPPPAFLTPALLPQRMWGGGGGPCGPGAQLPGTPVPGQAHLEEESLPPPKYWAALSLPRDHPSLPAMCTIMTN [GPR108]  3.35
57. SALGWSQGGTTQAPWAPRERGGIRAGQPPGCRCQEQSQAQVAPAACPVPFPKAPLHIEGRKREFRQLHSPFTPNPVFYSPEKR [STARD8]  3.27
58. SCRVFSSFFLLQEFVVT [MMP16]  3.12
59. RSCAAQSQTPAPTTYFCYTQEHFRKLSQLIFCFSSMSILSVSHFEDFFSLLYLCFSFFGFYFVVLSVIFNVPKICTCSIKNVV [HOOK3]  3.09
60. SAQQSHHPASQAGGRSWGRGLSPVRLLLVKGQGPGQASSSVQVILASVVGGRESKTCSAVSSSGD [PIK3C2B]  2.95
61. RSSTRDWKDHKLKWRKDPQDT [FCGR3B]  2.73
62. RSNFSFTVLSCLHRKSQYNFHC [SEC23IP]  2.62
63. RTRIPNYISTDAFHFNSS [SAMSN1]  2.43
64. SALTHAHAPLTLKRIHNSLEKHPHVCCRTHSSQLRPIPVTTASPPTPVTTASPPTPVTTASPPTALSPRPMSACPRAQDFLTG [SSH3]  2.09
65. SALELLNLCPWGFHPNQCQGPPLPPSK [ACY1]  2
66. RSKDNGVFFL [USP44]  1.94
67. RTSRPTTLRKIEW [HCAR1]  1.94
68. RSRVFQVPGPWL [MYL4]  1.67
69. SAAVTTFTCSSYTQTLQD [PIFO]  1.55
70. SDQGLGLRVGGLVEHCNPLNK [LRG1]  1.34
71. RSNLYVLPKKPKTAFD [C2orf15]  1.27
72. SDEHG [TMEM242]  1.05
73. RRTHRQ [ZNF397]  1.02
74. SAGSSPLVHSSQGQKGVDMINTESPTSTPTEFPARQCQKHFSREPKPNQEEAREEAGREEGAFPAPRFLKCRSDTCVGVHVLY [SWI5]  1.02
75. SCLY [GLRX2]  1.01
76. SCPPRCSQGNLAPRS [ZIC4]  0.982
77. RYQKKK [STARD6]  0.951
78. RVEPTSLPSQQARN [TMEM143]  0.919
79. SAVKFF [INTS8]  0.917
80. RYC [NCK1]  0.896
81. SAEGKSGKMSFERCIPKASSGASGKSGPTSARPSSPSPAPPLVSSFIQQNLAGK [NKG7]  0.737
82. SASAEVTEKPYDDVPDFSVGRSRPVA [TCF25]  0.734
83. RSHTACSFGCD [EIF2B5]  0.722
84. SDP [CYGB]  0.606
85. RTSARPARPFPTST [ISLR2]  0.582
86. RVT [OR2M3]  0.571
87. SDGSAGTHCPPWLPLGGNPNRAPGGNPAPNPPQQGCTVSPLED [ATP13A1]  0.555
88. SDFDHLNFL [IL1RL1]  0.533
89. SAHSPLSQDMDLELRMGLS [IMP4]  0.513
90. RTQDSE [CD3G]  0.492
91. SDASTGPSLFCPQP [HSPB8]  0.471
92. SDPAGSINLDAWTL [MYL5]  0.467
93. RVFHP [ZSWIM8]  0.463
94. SAIHL [XKR9]  0.425
95. RSC [DCK]  0.415
96. SDQLVCL [PPP1R15A]  0.401
97. RSGLFQ [IQCF1]  0.394
98. RTF [KBTBD3]  0.378
99. SDNL [PDLIM2]  0.365
100. SCPSFGNILF [RNASET2]  0.362
101. SATCPKA [NOL4L]  0.348
102. RVTKKTMHHKIAQSSAEQFSGDPWTQ [CXCL6]  0.284
103. RSSKPTKHQKTHSQTSEHKLHG [PLCB4]  0.191
104. SCRDSPAPKYK [MT1G]  0.15
